Reference: patent US20060115476A1 (ADIENNE, published 2006)

T1: C5 beta chain (human, UniProt P01031 19-673, reduced with DTT and treated with iodoacetamide (alkylated cysteines))
T1 construct: domain: beta chain; Separated from purified C5 by reduction, alkylation and gel filtration on Superose 12; also called beta sub-unit of C5; C5 beta subunit
T1 sequence (looked up): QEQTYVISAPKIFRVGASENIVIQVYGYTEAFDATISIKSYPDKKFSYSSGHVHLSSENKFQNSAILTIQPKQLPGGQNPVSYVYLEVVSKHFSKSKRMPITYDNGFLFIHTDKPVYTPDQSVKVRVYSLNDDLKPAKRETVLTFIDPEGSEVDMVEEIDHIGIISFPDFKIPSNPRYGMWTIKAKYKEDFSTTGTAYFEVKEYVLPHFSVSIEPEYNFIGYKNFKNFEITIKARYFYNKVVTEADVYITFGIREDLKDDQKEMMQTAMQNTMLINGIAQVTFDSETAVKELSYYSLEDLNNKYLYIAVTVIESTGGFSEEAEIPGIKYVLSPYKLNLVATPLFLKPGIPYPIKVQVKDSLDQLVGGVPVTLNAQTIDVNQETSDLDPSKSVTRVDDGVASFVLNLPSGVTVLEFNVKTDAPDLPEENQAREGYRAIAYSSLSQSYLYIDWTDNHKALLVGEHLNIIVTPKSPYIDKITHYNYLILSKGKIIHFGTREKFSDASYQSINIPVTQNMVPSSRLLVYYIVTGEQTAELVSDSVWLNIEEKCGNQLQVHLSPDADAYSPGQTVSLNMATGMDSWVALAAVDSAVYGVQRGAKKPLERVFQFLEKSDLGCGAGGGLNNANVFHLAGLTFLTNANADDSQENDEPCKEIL

B1: scFv TS-A12/22 (scFv, not shown: small tags and cut ends)
scFv: DIRMTQSPDSLAVSLGERATINCKSSQSVLYSSNNKNYLAWYQQKPGQPPKLLIYWASTRESGVPDRFSGSGSGTDFTLTISSLQAEDVAVYYCQQYYSTPQLTFGGRTKVDIKSGGSTITSYNVYYTKLSSSGTQVQLQQSEGGVVQPGRSLRLSCAASGFTFSSYGMNWVRQAPGKGLEWVSYISSSSSTIYYADSVKGRFTISRDNSKNTLYLQMNSLRAEDTAVYYCARGPGMDVWGQGTTVTVSS
notes: Obtained from TS-A12 by VL chain shuffling; also called TS-A12/22 antibody
B2: unrelated peptide CS5, derived from fibronectin (GEEIQIGHIPREDVDYHLYP) (peptide)
peptide: GEEIQIGHIPREDVDYHLYP

Tests used:
[1] = target: T2, C5 component of the complement system (purified C5) (human, UniProt P01031 19-673; P01031 678-1676); experiment: SPR, BIACORE 2000, C5 immobilised on the chip
T2 construct: domain: beta chain;domain: alpha chain; In haemolytic assays it was purified C5 or the C5 of human serum; also called factor C5; C5 antigen
T2 sequence (P01031 678-1676 limits assumed, one chain of several): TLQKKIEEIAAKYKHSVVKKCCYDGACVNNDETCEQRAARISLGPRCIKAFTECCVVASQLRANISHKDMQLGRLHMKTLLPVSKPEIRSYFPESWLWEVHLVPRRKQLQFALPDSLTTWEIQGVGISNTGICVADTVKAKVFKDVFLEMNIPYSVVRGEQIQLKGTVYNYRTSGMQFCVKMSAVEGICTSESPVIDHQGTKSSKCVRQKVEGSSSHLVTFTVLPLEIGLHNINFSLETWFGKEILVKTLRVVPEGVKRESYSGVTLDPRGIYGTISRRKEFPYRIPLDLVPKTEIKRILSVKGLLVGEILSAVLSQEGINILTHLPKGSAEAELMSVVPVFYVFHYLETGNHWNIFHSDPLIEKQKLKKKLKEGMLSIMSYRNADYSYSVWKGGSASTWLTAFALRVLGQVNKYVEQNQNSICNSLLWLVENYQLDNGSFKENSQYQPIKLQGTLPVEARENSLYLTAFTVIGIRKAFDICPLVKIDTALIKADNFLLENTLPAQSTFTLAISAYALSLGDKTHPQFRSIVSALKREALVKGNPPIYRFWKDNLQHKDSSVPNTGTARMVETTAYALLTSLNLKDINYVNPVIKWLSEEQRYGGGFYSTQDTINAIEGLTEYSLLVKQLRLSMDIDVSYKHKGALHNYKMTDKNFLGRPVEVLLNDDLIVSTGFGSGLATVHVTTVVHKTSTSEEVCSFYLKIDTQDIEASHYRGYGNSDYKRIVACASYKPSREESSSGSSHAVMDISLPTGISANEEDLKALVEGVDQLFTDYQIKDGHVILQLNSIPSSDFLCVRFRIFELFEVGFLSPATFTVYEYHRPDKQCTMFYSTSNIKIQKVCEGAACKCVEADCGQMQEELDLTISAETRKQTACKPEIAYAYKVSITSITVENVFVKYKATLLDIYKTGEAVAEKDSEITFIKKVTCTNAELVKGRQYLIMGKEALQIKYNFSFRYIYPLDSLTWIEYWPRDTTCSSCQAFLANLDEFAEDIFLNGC
Description: The microchip (CM5, Biacore) was prepared by direct conjugation of the C5 antigen with amines (20 μg/ml in 10 mM Sodium Acetate pH 4.5). The final level of immobilisation turned out to be approximately 1000 RU (Resonance Units). Association and dissociation of antibody molecules from the bio-chip were measured using an optical detection system (Surface Plasmon Resonance).
The analysis was carried out at 25° C., at a flow of 15 μl/min, using 4 different scFv concentrations in the range comprised between 100-300 nM, in PBS, 0.005% P20 (Biacore). The binding curves were interpolated 1:1 according to the model of Langmuir, using the dedicated software termed BIAevaluation (version 3.5) with correction for the mass transfer.

[2] = target: B2; experiment: competitive ELISA: scFv pre-incubated with the peptide, binding to C5 on solid phase
From the text: (§1) This peptide corresponds to region 727-744 of the mature protein and comprises the cleavage site of C5 convertase (indicated by the arrow) between glycine 733 and arginine 734 according to SwissProt numbering for human C5 (SEQ ID P01031). The peptide was used in a competitive ELISA assay on the C5 protein on solid phase. […] (SEQ ID No. 16 of sequence listing) corresponding to a fibronectin derived peptide termed CS5.

C5 beta chain = target: T1, C5 beta chain; experiment: Western blot
scFv TS-A12/22 = target: B1; experiment: competitive ELISA: scFv TSA-12/22 (1 µg/ml) pre-incubated with the peptide, then binding to C5 on solid phase, given as % of the saline control
From the text: as §1

Row | Kd [1] [nM] | binding result [2] | binding result (scFv TS-A12/22) | Binder | binding result (C5 beta chain)
1 | 18 | no binding (tested: 800 ng) | – | B1 | no binding (tested: 100 ng of beta chain)
2 | – | – | no binding (tested: 800 ng) | B2 | –
